Laboratory results published in a protein production outcome set (Wang et al. 2014).

Assay: label from the status in PepcDB records

Sequence | protein production
MEAVVLPWQIFGVRELPVERGVTMKGPRLFRAPGHVPTGLKCHPDQEHMIYPLGCTVLIQAINTKEQNFLQGHGNNVSCLAISRSGEYIASGQVTFMGFKADIILWDYKNRELLARLSLHKGKIEALAFSPNDLYLVSLGGPDDGSVVVWSIAKRDAICGSPAAGLNVGNATNVIFSRCRDEMFMTAGNGTIRVWELDLPNRKIWPTECQTGQLKRIVMSIGVDDDDSFFYLGTTTGDILKMNPRTKLLTDVGPAKDKFSLGVSAIRCLKMGGLLVGSGAGLLVFCKSPGYKPIKKIQLQGGITSITLRGEGHQFLVGTEESHIYRVSFTDFKETLIATCHFDAVKDIVFPFGTAELFATCAKKDIRVWHTSSNRELLRITVPNMTCHGIDFMRDGKSIISAWNDGKIRAFAPETGRLMYVINNAHRIGVTAIATTSDCKRVISGGGEGEVRVWQIGCQTQKLEEALKEHKSSVSCIRVKRNNEECVTASTDGTCIIWDLVRLRRNQMILANTLFQCVCYHPEEFQIITSGTDRKIAYWEVFDGTVIRELEGSLSGSINGMDITQEGVHFVTGGNDHLVKVWDYNEGEVTHVGVGHSGNITRIRISPGNQYIVSVSADGAILRWKYPYTS | failed
MEAVVVEREAKGMKEIAIQEKDLTLQWRGNTGKLVKVRLKNTRAMEMWYNKQITEENIQEITTLNIIKNGKSLALEVYPEKSIYVKPNLGRINVPVFFIKTPINRGVFEEIFGETLKA | not failed
MECRECTNRNKLDFEFTMAFQPIVNLETQTIFAHEALVRGLNNESAQAIFQHINDSNRYLFDQSCRTTAIRLAAELHIPCFLSINFLPNAVYEPERCIRTTLEAAETYGFPIEQIIFEITESEQITDLVHLRKIVEYYRARGFKTAIDDFGAGYAGLNLLSEIQTDLIKLDMALIRGIDQDKVRQAIVKGVLQVAGELSSLVIAEGIETQAELTTLQGLGINLFQGFYFAKPTFQSLAQIPSDRFVNVA | failed
MEDDVTTTERLPAPPLDTASKRVGFISLGCPKALVDSERILTQLRAEGYEVAPSYEGADAVIVNTCGFITPAVEESLSAIGEALDATGKVIVTGCLGERPEKIMERHPKVAAITGSEAVDDVMGHVRELLPIDQGAFTGLLPVAAPGMRAGVETPQRENTRHGDVFAPSVKLTPRHYAYVKVAEGCNHTCAFCIIPKLRGLQVSRDAGAVLYEAYRLIAGGTKELMIIAQDTSAYGVDLRYRESEFQGEQVRAHLTDLAVKLGEMGAWVRMHYVYPYPHVDRVVELMAQGKVLPYLDIPLQHASPKILKLMRRPGAGKQLDTIRRWREICPELVIRSTFIVGFPGETEEDFQELLQFLEDARLDRVGAFPYSDIEEADANALPGAVPEEVKQERLARFMEVAQRISTEKLSEKVGRVMDVIIDEFNDDEDDQPGTRLIGRTKGDAPGIDGQVYLYAGDFAGLVKIGDIVRARIEDSDEYDLFGEVIEKPEWKPNVPQLGHFGKH | failed
MEDKTLGLLLDVVGELFSDEISIAVSNTKEYIYYRPSKRIDLKISAGDPIKEGTIAHKAMVTNQKTSEFMNRDVFGIPYHGMAVPFSNNGKLEGCVTAIYPALTDGKSVVTLKTTDGWIPVPFSKVMYLEAKDKKTYVNAEELTGTHKYSLQEFEYLLPKDSFIRCHRSFIVNVNHIKAIYPDTHSTFLLSMDNGERVPVSQSYASYFRKLLGF | not failed
MEDLLPTLPSLDHRDALPNALASPVLPAGQSDAQLVRTWLDTKYAAGLGIRASTRAQYALEAHRLLWYAHALGRPLASWQVADANGYLAFLADPPAHAVGDGRVRQDSPAWRPLRGPLSEASRRQTATIVGGLFEWLVGVEALRVNPFQAVPRARSARGPGSQRRFLEAEQLAAVFDAVEARPAPTLWAQLHKARDRLLLALLFHTGLRASEVTALTWPDFERQRGRHGDFWTVRIREAKGGSDQLVPCDNVMAELARFRQLVGLSPEPRATDTMAVVPAMAGGRQRLAPLTDTLALQRRLSRPVRTRQGLYTIVRQVFEAAAVRLEASGYAEGAANLRAASTHWLRHSHATHLLRAGVPVTDVQRTLRHRDINTTRRYTHEALEDVARSIGGKLPAVLEHHHHHH | failed
MEDLVTAPTPLDKRWLTEAVRLREEHAGPLEDQEANRHARQLGGDLATRIETRALFLAERDDMTGALRHWKQGARLALLALLLMAVLSGTGLGLAALGDGQRPVNVFWALGSLLGLNLLMLLGWGMGFALSGEHGAGLGRLWLWLSERFARDAKAAHLAPALLVLLQRQRLNRWLLGLLVHGLWLLAMLTALGMLLVLLATRRYGFVWETTLLAADPFIHLTQALGALPSLLGFAVPDEAMIRASGDSLPALDVARQAWASWLLGVVLVYGLLPRLLLAGLCLWRWRQGRERLTLDLGLPGYAQLREALMPRSERIGVQDAAPQALPQFAAGQLESGSSGALLVGLELDDQRPWPPALPKSVTDAGVLDSRESRNRLLEQLSRFPPARLAIACDPRRSPDRGSLALLAELARNAGATRIWLLQAAPGQPLDAERLGDWHEALDRLGLQHADTSPLTWLEHGHD | failed
MEDWWFSWLSRTNLEPSLIHEYGLSFSQNELEHEDISYFDHEFLQSMGISIAKHRLEILKLARRDRKNSPPLTSRSISRVVTAIKKTRKCLSDHVRAWIRREEESASSRALVLVPKKTSNGIGKWRGGFLKRNKRSVMPSNGNGGLEKQERLLLTNGTPCRIDSFSSPMVFDYSFKDEKLYAQDTYFEDIKWDSMFQNLKPT | failed
MEEERRDDYKFLRIQDAFKALHLHVNLIGVIVELGFSNGSDCSCTLKIVDPWYSGSGLPVKFVARTIRDLPRVESIGDIILLSRVKIVLINRKITALCNETTSSSFALFNGKHSVDSIPYQSSPKFLMREQDKNFLSNLREWMITYKFEDGS | not failed
MEEITDGVNNMNLATDSQKKNRIQVSNTKKPLFFYVNLAKRYMQQYNDVELSALGMAIATVVTVTEILKNNGFAVEKKIMTSTVDIKDDARGRPVQKAKIEITLVKSEKFDELMAAANEEKEDAEAQVQN | not failed
MEEKRLSAKKGLPPGTLVYTGKYREDFEIEVMNYSIEEFREFKTTDVESVLPFRDSSTPTWINITGIHRTDVVQRVGEFFGIHPLVLEDILNVHQRPKVEFFENYVFIVLKMFTYDKNLHELESEQVSLILTKNCVLMFQEKIGDVFDPVRERIRYNRGIIRKKRADYLLYSLIDALVDDYFVLLEKIDDEIDVLEEEVLERPEKETVQRTHQLKRNLVELRKTIWPLREVLSSLYRDVPPLIEKETVPYFRDVYDHTIQIADTVETFRDIVSGLLDVYLSSVSNKTNEVMKVLTIIATIFMPLTFIAGIYGMNFEYMPELRWKWGYPVVLAVMGVIAVIMVVYFKKKKWL | not failed
MEEKVEELIDIYKQQIYSLCYKLAKTKEDAEDIFQETWIKVFSSRHQLSYVENYKKWITTICVRTFYDFYSKKKRWKDRVLDLFHKEDGGEIEFADDVNISEEFIQKVEAEMIREVIQLLNEKYKTVLVLYYYEQYSYKEMSEILNIPIGTVKYRLNYAKKQMREHLEGFVHEGR | failed
MEENKPVFSIITVCYCARDIIAKTAHSVLSQTYPNIEYIVVDGASPDNTAEVVRSLSSDIRLISEPDKGLYDAMNKGLRMALGDYVWFLNAGDLLPSDDLVEAIANGIKSSPMGLPDVLYGDTMLIDATGKEKGLRRLRPPFELQWRSFADGMLVCHQAFIAKRLIAPPYNMKYRFSADFDWCIRILQAARNIVNTEMILVHSLDDRGGITYKNHKASLKERFLIMKHYYGSRKSIMKHLSFFFRRKR | failed
MEEPRRLGGRYELGPVLGRGGMAEVYHAHDTRLGRQVAVKTLRADLARDPSFQARFRREAQSAASLNHPAIVAVYDTGEDYIDNVSIPYIVMEYVDGSTLRELLHSGRKLLPERTLEMTIGILQALEYSHRAGIVHRDIKPANVMLTRNGQVKVMDFGIARAMGDSGMTMTQTAAVIGTAQYLSPEQAKGEQVDARSDLYSTGCLLYELLTVRPPFVGDSPVAVAYQHVREEPQAPSVFDPEITPEMDAIVLKALVKDPDYRYQSADEMRVDIEACLDGQPVGATAAMGAMAAGGYGAYPDDQPTTALRSDGGGGATTMLPPMNPDDGGYGYDERPDRRRQQPRKKNTSTIFLVLAGVLVLVGAILIGKYAFSGDGGPGNDKVPVPAFIGLSKADAQQQADNIDLVLTFKQQECEDQPKGNICAQDPKQGTDVDKESTVNLVVSTGAPKVAVPNVIDKNIDEAKKQLEDKGFEVETKQTESSQDEGTILSQNPDPGKELEKGSTVTLEVAKAEEKATVPDVVGRTCDEAKAQVESGGDLTAVCTDQPTNDPNQVGKVISTTPQSSTQVDPGSKVTIVVGKAVEKTKVPEVRGKTLAEARQILQQSGFTNVQVAQGSPGDDNAKVFASNPQPGSEVDDPAATPITLMTVPGDGGNGNGGNGNGGAIAGLPGFGD | failed
MEEQVLGQSHDCETAADKSDQKLQDVTLAKTTHWGKIKAMLEEKIDELSQGLHRVASDNAALTRSLQERSEMIVKISEERSKAEADVEKLKD | failed
MEESDVLISLIEILKIHQKVIDYDKFKDPEDYTPAIRSLATLELMFEYLIKESNTIFENAAVIVYTIVAKHPFFNGNKRTGYEAMNFIIEDGGYGFTSTDEEMIEFIIRVATTENEMSIEEIKEWIIRHTEKILLEHHHHHH | not failed
MEESSAAKIQLLKEFKFEKILKDDTKSKIITLYGKIRNEVALLLLEKTAFDLNTIKLDQLATFLQDTKLVENNDVFHWFLSTNFQDCSTLPSVKSTLIWPASETHVYKYSSQKKPMVCETPLMYLKVTKPFIETQRGPQIQWVENILTHKAEAERIVVEDPDPLNGFIVIPDLKWDRQTMSALNLMAIVHATDIASIRDLKYKHIPLLENIRNKVLTEVPKQFSVDKNQLKMFVHYLPSYYHLHVHILHVDHETGDGSAVGRAILLDDVIDRLRNSPDGLENVNITFNIGEQHFLFQPLTNMNA | not failed
MEFEVEYDILVIVLVAFYILAATRIAHVIGLPPGVVEIIMGAMLAFWGVKSTEVLTLLAAIGANLLLFMAGSEIDLALLRSILPQAVIVALVSALAPLALTALLHVYLGLSLTSSLVILASLSATSVALTYLLLSSYRLVRSRLGQLALASAMLLDLSGMIMLNIATASISPSLAFYIVILLAALLLYPLLPRLGGAPFEAEIRLITMTVIILGFLSDFVGVHSVLTSFILGVIASETVRTRVQLREKLESLATGFFTPFFFIASGMSIDPGIPLHYVALALAGGVALALARTYTVYFYFRLTGSSRRSSLIAASSTAMLLTVTIIAASVGFQLGLLDSLMYSVLVWIVVGTILGSFALVKMR | failed
MEFLFILLPVFGIFAIGFIGQKTLKFDIPNLSKLTLYLMSPFLAFNTFYTNPLTMDYFYLAIYIFVLCLSLILLVSVISFLLGYNVQDRCALILASAFMNNGNYGTPVVLLVFGAAGLDIAVVLMVLQQLAMSTIGIYFAAKGSKDANGMKTVMTRVVRMPIAYGALLGLMLQLLHIPLPSALMTCVKLVGDAAIPTIMIVLGMQLAVISFRRIELDKVGIALVLKLLIAPFIAFGLTLILPVDEMTKQIMILLAAMPTAANTTLMAVQFDTKPDLVSSTTFISTVLSIITLPIVLYFLHPVF | failed
MEFTTQHFIALAPMLITTITTVVVMLAIAWKRNHSQTFLLSTVGLNLALLSLLPALKVAPLAVTSLITIDKFACLYMAIILVATLACVTLAHAYLGEGAKGFPGNREELYLLLLMSALGGLVLVSANHLAGLFIGLELLSVPVYGLVAYAFFNKRSLEAGIKYMVLSAAGSAFLLFGMALLYADAGSLSFDQIGKALATTSMPSLVAQLGLGMMLVGLAFKLSLVPFHLWTPDVYEGAPAPVAAFLATASKVAVFAVVVRLFMLSPAASSGVLSTVLAVIAVASILIGNLLALTQSNLKRLLGYSSIAHFGYLVIALVASKGLALEAMGVYLVTYVITSLGAFGVITLMSSPYGGRDADALYEYRGLFWRRPYLTAVLTVMMLSLAGIPLTAGFIGKFYIIATGVESHLWWLVGALVIGSAIGVYYYLRVMVTLYLVEPNLRRHDAPLKWEQRTGGVMLLAIAILAFVLGVYPQPLLEMVQQAGLQLIG | failed
